Measurements from paper PMC7614769.
Where “and” joins values, the source holds several entries; their conditions need not be identical. Equal entries are not always repeated.

Target: human FcμR ectodomain (human) (UniProt O60667)
Experiment: BLI; FcμR (20 μg/ml) captured on AMC (anti-mouse IgG-Fc capture) biosensors by the anti-FcμR antibody RR-16; full-length or proteolysed IgM 0.08-10 nM in solution; PBS, 0.005% Tween 20, 25 °C; apparent Kd from response against IgM concentration, 1:1 binding model

Sequence of human FcμR ectodomain (human) (O60667 17-251): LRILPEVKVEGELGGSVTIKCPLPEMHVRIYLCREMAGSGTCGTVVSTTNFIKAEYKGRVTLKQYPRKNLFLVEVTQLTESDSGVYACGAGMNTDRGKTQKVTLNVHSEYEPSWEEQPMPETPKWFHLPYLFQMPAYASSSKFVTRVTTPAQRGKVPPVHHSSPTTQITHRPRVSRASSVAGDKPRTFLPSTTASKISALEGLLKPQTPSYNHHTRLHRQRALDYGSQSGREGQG
Sequence of Full-length IgM (myeloma), pentamer with J chain (P01591 whole entry, looked up): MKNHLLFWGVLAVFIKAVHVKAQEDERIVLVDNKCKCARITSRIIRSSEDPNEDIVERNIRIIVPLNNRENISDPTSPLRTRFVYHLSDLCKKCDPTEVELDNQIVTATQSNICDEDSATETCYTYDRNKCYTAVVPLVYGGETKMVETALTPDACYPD

Kd: 0.3 nM and 0.4 nM
Substance: Full-length IgM (myeloma), pentamer with J chain (from UniProt P01591 23-159) (antibody)
